In patent US11130793B2, “GLP-1/GLP-2 dual agonists” (Zealand Pharma A/S, priority 2016, dated 2021):
Square brackets hold non-standard residues; d marks the D form. Aib = CC(C)(N)C(=O)O

T1: human GLP-2 receptor (hGLP2-R) (human, UniProt O95838)
T1 sequence: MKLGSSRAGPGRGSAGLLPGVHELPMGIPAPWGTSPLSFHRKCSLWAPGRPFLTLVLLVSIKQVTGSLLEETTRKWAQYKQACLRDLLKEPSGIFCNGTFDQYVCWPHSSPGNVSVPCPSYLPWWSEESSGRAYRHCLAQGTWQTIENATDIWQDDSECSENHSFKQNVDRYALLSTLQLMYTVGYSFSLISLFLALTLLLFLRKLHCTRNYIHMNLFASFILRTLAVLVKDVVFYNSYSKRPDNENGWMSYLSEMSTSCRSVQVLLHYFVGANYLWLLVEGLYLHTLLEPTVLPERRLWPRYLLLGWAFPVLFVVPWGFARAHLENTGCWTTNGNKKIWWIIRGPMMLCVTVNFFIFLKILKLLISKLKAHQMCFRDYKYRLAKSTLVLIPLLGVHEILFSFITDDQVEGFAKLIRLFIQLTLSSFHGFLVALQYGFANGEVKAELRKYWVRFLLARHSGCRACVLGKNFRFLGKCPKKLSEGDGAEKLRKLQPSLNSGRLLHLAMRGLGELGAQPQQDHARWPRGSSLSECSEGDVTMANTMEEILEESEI


Tests used:
[1] = target: T1, human GLP-2 receptor (hGLP2-R); assay: cell-based or functional assay
[2] = target: human glucagon-like peptide 1 receptor (GLP-1R) (human, UniProt P43220); assay: cell-based or functional assay

Row | Binder | EC50 GLP-2 (nM); cAMP AlphaScreen [1] [nM] | EC50 GLP-1 (nM); cAMP AlphaScreen [2] [nM]
1 | H-H[Aib]EGSFTSELATILDGKAARDFIAWLIAHKITD-OH (SMILES CC[C@H](C)[C@H](NC(=O)[C@H](CC(C)C)NC(=O)[C@H](Cc1c[nH]c2ccccc12)NC(=O)[C@H](C)NC(=O)[C@@H](NC(=O)[C@H](Cc1ccccc1)NC(=O)[C@H](CC(=O)O)NC(=O)[C@H](CCCNC(=N)N)NC(=O)[C@H](C)NC(=O)[C@H](C)NC(=O)[C@H](CCCCN)NC(=O)CNC(=O)[C@H](CC(=O)O)NC(=O)[C@H](CC(C)C)NC(=O)[C@@H](NC(=O)[C@@H](NC(=O)[C@H](C)NC(=O)[C@H](CC(C)C)NC(=O)[C@H](CCC(=O)O)NC(=O)[C@H](CO)NC(=O)[C@@H](NC(=O)[C@H](Cc1ccccc1)NC(=O)[C@H](CO)NC(=O)CNC(=O)[C@H](CCC(=O)O)NC(=O)C(C)(C)NC(=O)[C@@H](N)Cc1c[nH]cn1)[C@@H](C)O)[C@@H](C)O)[C@@H](C)CC)[C@@H](C)CC)C(=O)N[C@@H](C)C(=O)N[C@@H](Cc1c[nH]cn1)C(=O)N[C@@H](CCCCN)C(=O)N[C@H](C(=O)N[C@H](C(=O)N[C@@H](CC(=O)O)C(=O)O)[C@@H](C)O)[C@@H](C)CC) [Compound 31] | 0.078 | 0.02
2 | H-H[Aib]EGTFTSELATILDEQAARDFISWLIAHKITD-OH (SMILES CC[C@H](C)[C@H](NC(=O)[C@H](CC(C)C)NC(=O)[C@H](Cc1c[nH]c2ccccc12)NC(=O)[C@H](CO)NC(=O)[C@@H](NC(=O)[C@H](Cc1ccccc1)NC(=O)[C@H](CC(=O)O)NC(=O)[C@H](CCCNC(=N)N)NC(=O)[C@H](C)NC(=O)[C@H](C)NC(=O)[C@H](CCC(N)=O)NC(=O)[C@H](CCC(=O)O)NC(=O)[C@H](CC(=O)O)NC(=O)[C@H](CC(C)C)NC(=O)[C@@H](NC(=O)[C@@H](NC(=O)[C@H](C)NC(=O)[C@H](CC(C)C)NC(=O)[C@H](CCC(=O)O)NC(=O)[C@H](CO)NC(=O)[C@@H](NC(=O)[C@H](Cc1ccccc1)NC(=O)[C@@H](NC(=O)CNC(=O)[C@H](CCC(=O)O)NC(=O)C(C)(C)NC(=O)[C@@H](N)Cc1c[nH]cn1)[C@@H](C)O)[C@@H](C)O)[C@@H](C)O)[C@@H](C)CC)[C@@H](C)CC)C(=O)N[C@@H](C)C(=O)N[C@@H](Cc1c[nH]cn1)C(=O)N[C@@H](CCCCN)C(=O)N[C@H](C(=O)N[C@H](C(=O)N[C@@H](CC(=O)O)C(=O)O)[C@@H](C)O)[C@@H](C)CC) [Compound 34] | 0.049 | 0.005
3 | H-H[Aib]EGTFTSELATILDEQAARDFINWLKSYKITD-OH (SMILES CC[C@H](C)[C@H](NC(=O)[C@H](Cc1ccccc1)NC(=O)[C@H](CC(=O)O)NC(=O)[C@H](CCCNC(=N)N)NC(=O)[C@H](C)NC(=O)[C@H](C)NC(=O)[C@H](CCC(N)=O)NC(=O)[C@H](CCC(=O)O)NC(=O)[C@H](CC(=O)O)NC(=O)[C@H](CC(C)C)NC(=O)[C@@H](NC(=O)[C@@H](NC(=O)[C@H](C)NC(=O)[C@H](CC(C)C)NC(=O)[C@H](CCC(=O)O)NC(=O)[C@H](CO)NC(=O)[C@@H](NC(=O)[C@H](Cc1ccccc1)NC(=O)[C@@H](NC(=O)CNC(=O)[C@H](CCC(=O)O)NC(=O)C(C)(C)NC(=O)[C@@H](N)Cc1c[nH]cn1)[C@@H](C)O)[C@@H](C)O)[C@@H](C)O)[C@@H](C)CC)C(=O)N[C@@H](CC(N)=O)C(=O)N[C@@H](Cc1c[nH]c2ccccc12)C(=O)N[C@@H](CC(C)C)C(=O)N[C@@H](CCCCN)C(=O)N[C@@H](CO)C(=O)N[C@@H](Cc1ccc(O)cc1)C(=O)N[C@@H](CCCCN)C(=O)N[C@H](C(=O)N[C@H](C(=O)N[C@@H](CC(=O)O)C(=O)O)[C@@H](C)O)[C@@H](C)CC) [Compound 36] | 0.11 | 0.007

The remaining lines, values ahead:

Row | EC50 GLP-2 (nM); cAMP AlphaScreen [1] [nM] | EC50 GLP-1 (nM); cAMP AlphaScreen [2] [nM] | Binder
4 | 0.034 | 0.046 | H-H[Aib]EGTFSSELATILDEQAARDFIAWLIAHKITD-OH (SMILES CC[C@H](C)[C@H](NC(=O)[C@H](CC(C)C)NC(=O)[C@H](Cc1c[nH]c2ccccc12)NC(=O)[C@H](C)NC(=O)[C@@H](NC(=O)[C@H](Cc1ccccc1)NC(=O)[C@H](CC(=O)O)NC(=O)[C@H](CCCNC(=N)N)NC(=O)[C@H](C)NC(=O)[C@H](C)NC(=O)[C@H](CCC(N)=O)NC(=O)[C@H](CCC(=O)O)NC(=O)[C@H](CC(=O)O)NC(=O)[C@H](CC(C)C)NC(=O)[C@@H](NC(=O)[C@@H](NC(=O)[C@H](C)NC(=O)[C@H](CC(C)C)NC(=O)[C@H](CCC(=O)O)NC(=O)[C@H](CO)NC(=O)[C@H](CO)NC(=O)[C@H](Cc1ccccc1)NC(=O)[C@@H](NC(=O)CNC(=O)[C@H](CCC(=O)O)NC(=O)C(C)(C)NC(=O)[C@@H](N)Cc1c[nH]cn1)[C@@H](C)O)[C@@H](C)O)[C@@H](C)CC)[C@@H](C)CC)C(=O)N[C@@H](C)C(=O)N[C@@H](Cc1c[nH]cn1)C(=O)N[C@@H](CCCCN)C(=O)N[C@H](C(=O)N[C@H](C(=O)N[C@@H](CC(=O)O)C(=O)O)[C@@H](C)O)[C@@H](C)CC) [Compound 2]
5 | 0.041 | 0.004 | H-H[Aib]EGTFTSELATILDEQAARDFINWLIAHKITD-OH (SMILES CC[C@H](C)[C@H](NC(=O)[C@H](CC(C)C)NC(=O)[C@H](Cc1c[nH]c2ccccc12)NC(=O)[C@H](CC(N)=O)NC(=O)[C@@H](NC(=O)[C@H](Cc1ccccc1)NC(=O)[C@H](CC(=O)O)NC(=O)[C@H](CCCNC(=N)N)NC(=O)[C@H](C)NC(=O)[C@H](C)NC(=O)[C@H](CCC(N)=O)NC(=O)[C@H](CCC(=O)O)NC(=O)[C@H](CC(=O)O)NC(=O)[C@H](CC(C)C)NC(=O)[C@@H](NC(=O)[C@@H](NC(=O)[C@H](C)NC(=O)[C@H](CC(C)C)NC(=O)[C@H](CCC(=O)O)NC(=O)[C@H](CO)NC(=O)[C@@H](NC(=O)[C@H](Cc1ccccc1)NC(=O)[C@@H](NC(=O)CNC(=O)[C@H](CCC(=O)O)NC(=O)C(C)(C)NC(=O)[C@@H](N)Cc1c[nH]cn1)[C@@H](C)O)[C@@H](C)O)[C@@H](C)O)[C@@H](C)CC)[C@@H](C)CC)C(=O)N[C@@H](C)C(=O)N[C@@H](Cc1c[nH]cn1)C(=O)N[C@@H](CCCCN)C(=O)N[C@H](C(=O)N[C@H](C(=O)N[C@@H](CC(=O)O)C(=O)O)[C@@H](C)O)[C@@H](C)CC) [Compound 33]
6 | 0.048 | 0.006 | H-H[Aib]EGTFTSELATILDEQAARDFINWLKAHKITD-OH (SMILES CC[C@H](C)[C@H](NC(=O)[C@H](Cc1ccccc1)NC(=O)[C@H](CC(=O)O)NC(=O)[C@H](CCCNC(=N)N)NC(=O)[C@H](C)NC(=O)[C@H](C)NC(=O)[C@H](CCC(N)=O)NC(=O)[C@H](CCC(=O)O)NC(=O)[C@H](CC(=O)O)NC(=O)[C@H](CC(C)C)NC(=O)[C@@H](NC(=O)[C@@H](NC(=O)[C@H](C)NC(=O)[C@H](CC(C)C)NC(=O)[C@H](CCC(=O)O)NC(=O)[C@H](CO)NC(=O)[C@@H](NC(=O)[C@H](Cc1ccccc1)NC(=O)[C@@H](NC(=O)CNC(=O)[C@H](CCC(=O)O)NC(=O)C(C)(C)NC(=O)[C@@H](N)Cc1c[nH]cn1)[C@@H](C)O)[C@@H](C)O)[C@@H](C)O)[C@@H](C)CC)C(=O)N[C@@H](CC(N)=O)C(=O)N[C@@H](Cc1c[nH]c2ccccc12)C(=O)N[C@@H](CC(C)C)C(=O)N[C@@H](CCCCN)C(=O)N[C@@H](C)C(=O)N[C@@H](Cc1c[nH]cn1)C(=O)N[C@@H](CCCCN)C(=O)N[C@H](C(=O)N[C@H](C(=O)N[C@@H](CC(=O)O)C(=O)O)[C@@H](C)O)[C@@H](C)CC) [Compound 35]
7 | 0.15 | 0.038 | H-H[Aib]EGTFSSELATILDGKAARDFIAWLIAHKITD-OH (SMILES CC[C@H](C)[C@H](NC(=O)[C@H](CC(C)C)NC(=O)[C@H](Cc1c[nH]c2ccccc12)NC(=O)[C@H](C)NC(=O)[C@@H](NC(=O)[C@H](Cc1ccccc1)NC(=O)[C@H](CC(=O)O)NC(=O)[C@H](CCCNC(=N)N)NC(=O)[C@H](C)NC(=O)[C@H](C)NC(=O)[C@H](CCCCN)NC(=O)CNC(=O)[C@H](CC(=O)O)NC(=O)[C@H](CC(C)C)NC(=O)[C@@H](NC(=O)[C@@H](NC(=O)[C@H](C)NC(=O)[C@H](CC(C)C)NC(=O)[C@H](CCC(=O)O)NC(=O)[C@H](CO)NC(=O)[C@H](CO)NC(=O)[C@H](Cc1ccccc1)NC(=O)[C@@H](NC(=O)CNC(=O)[C@H](CCC(=O)O)NC(=O)C(C)(C)NC(=O)[C@@H](N)Cc1c[nH]cn1)[C@@H](C)O)[C@@H](C)O)[C@@H](C)CC)[C@@H](C)CC)C(=O)N[C@@H](C)C(=O)N[C@@H](Cc1c[nH]cn1)C(=O)N[C@@H](CCCCN)C(=O)N[C@H](C(=O)N[C@H](C(=O)N[C@@H](CC(=O)O)C(=O)O)[C@@H](C)O)[C@@H](C)CC) [Compound 32]
